Reference: patent publication US20140328762A1 (published 2014)

Legend:
JunLZ-Sb1b3 beacon = JunLZ-Sb1b3 beacon (UniProt P0AEX9 27-392 = MBP); assay: fluorescence screening assay (FIG. 11)
Procedure: (§1) The graphs show a comparison of binding-induced fluorescence enhancement of JunLZ beacons. Concentration for all beacons is 1.0 and concentration of FosLZ or scrFosLZ is 10.0 μM. The assay was carried out in 0.1 M PBS, pH7.2 at room temperature. […] Numbers above the curves represent signal to noise ratios calculated from the maxim emission values that centered around 585 nm.
(§2) The purified fusion proteins were used directly without removing the MBP fusion partner. To prepare the beacons, TAMRA fluorophores were attached to the fusion proteins via the maleimide chemistry.

JunLZ-Sb3b5 beacon = JunLZ-Sb3b5 beacon (UniProt P0AEX9 27-392 = MBP); assay: fluorescence screening assay (FIG. 11)
Procedure: as §1, §2

JunLZ-Sb1b4 beacon = JunLZ-Sb1b4 beacon (UniProt P0AEX9 27-392 = MBP); assay: fluorescence screening assay (FIG. 11)
Procedure: as §1, §2

JunLZ-Lb1b3 beacon = JunLZ-Lb1b3 beacon (UniProt P0AEX9 27-392 = MBP); assay: fluorescence emission screening (FIG. 11)
Procedure: as §1, §2

JunLZ-Lb3b5 beacon = JunLZ-Lb3b5 beacon (UniProt P0AEX9 27-392 = MBP); assay: fluorescence emission screening (FIG. 11)
Procedure: as §1, §2

JunLZ-Lb2b5 beacon = JunLZ-Lb2b5 beacon (UniProt P0AEX9 27-392 = MBP); assay: fluorescence emission screening (FIG. 11)
Procedure: as §1, §2

JunLZ-Lb1b4 beacon = JunLZ-Lb1b4 beacon (UniProt P0AEX9 27-392 = MBP); assay: fluorescence emission screening (FIG. 11)
Procedure: as §1, §2

Measured: binding result

B1: scrFosLZ (MBP-scrFosLZ, fusion protein of MBP and the scrambled cFos leucine zipper) (other, not shown: large carriers)
chain: GGSGGTDTAQAETDQAEDEKSAAQTEIANALKEKEKAEFILA
notes: Negative control; also called scrambled FosLZ
no binding (tested: 10.0 µM): all assays above
